Experiments:
[1] = target: C-terminally truncated zebrafish ortholog of the TREK1 channel (drTREK1), residues 1-322, N95Q, N122Q (D. rerio (zebrafish)); assay: native MS; TREK1 in 200 mM ammonium acetate pH 8, 0.25 mM DDM, without lipid or with 0.1 mg/ml POPA or 0.025 mg/ml POPE; static nanospray on a Q-Exactive EMR
[2] = target: C-terminally truncated zebrafish ortholog of the TREK1 channel (drTREK1), residues 1-322, N95Q, N122Q (D. rerio (zebrafish)); assay: cryo-EM structure; single particle cryo-EM of purified TREK1 at 3 mg/ml in DDM micelles (150 mM KCl, 20 mM Tris pH 8.0), without lipid or with POPA or POPE mixed micelles

“C-terminally truncated zebrafish ortholog of the TREK1 channel (drTREK1), residues 1-322, N95Q, N122Q (natural protein)” gave a stoichiometry N [1] of 2 and a stoichiometry N [2] of 2.

Reference: article PMC9968290
